Earlier results in article PMC4518449 (Journal of chromatography. B, Analytical technologies in …, 2013).

Details: rapidly cleared by DPP-4

**Q.** Which half-life in plasma does the source give for GLP-1 here?
**A.** less than 2 min
